Experimental findings from US20040054158A1 (GENETICS INSTITUTE, published 2004) are described below.

B1: mICOS-mIgG2am (Fc fusion)
chain: EINGSADHRMFSFHNGGVQISCKYPETVQQLKMRLFREREVLCELTKTKGSGNAVSIKNPMLCLYHLSNNSVSFFLNNPDSSQGSYYFCSLSIFDPPPFQERNLSGGYLHIYESQLCCQLKLEPRGPTIKPCPPCKCPAPNLEGGPSVFIFPPKIKDVLMISLSPIVTCVVVDVSEDDPDVQISWFVNNVEVHTAQTQTHREDYNSTLRVVSALPIQHQDWMSGKAFACAVNNKDLPAPIERTISKPKGSVRAPQVYVLPPPEEEMTKKQVTLTCMVTDFMPEDIYVEWTNNGKTELNYKNTEPVLDSDGSYFMYSKLRVEKKNWVERNSYSCSVVHEGLHNHHTTKSFSRTPGK
notes: Fusion of mouse ICOS with a mouse IgG2a domain mutated to reduce effector function; also called ICOS-Ig; ICOS Ig
B2: hICOS-mIgG2am (Fc fusion)
chain: EINGSANYEMFIFHNGGVQILCKYPDIVQQFKMQLLKGGQILCDLTKTKGSGNTVSIKSLKFCHSQLSNNSVSFFLYNLDHSHANYYFCNLSIFDPPPFKVTLTGGYLHIYESQLCCQLKFEPRGPTIKPCPPCKCPAPNLEGGPSVFIFPPKIKDVLMISLSPIVTCVVVDVSEDDPDVQISWFVNNVEVHTAQTQTHREDYNSTLRVVSALPIQHQDWMSGKAFACAVNNKDLPAPIERTISKPKGSVRAPQVYVLPPPEEEMTKKQVTLTCMVTDFMPEDIYVEWTNNGKTELNYKNTEPVLDSDGSYFMYSKLRVEKKNWVERNSYSCSVVHEGLHNHHTTKSFSRTPGK
notes: Fusion of human ICOS with the mutated mouse IgG2a domain
B3: human DAP-12 expressed on transfected COS cells (other, UniProt O43914 22-113, looked up)
chain: LRPVQAQAQSDCSCSTVSPGVLAGIVMGDLVLTVLIALAVYFLGRLVPRGRGAAEAATRKQRITETESPYQELQGQRSDVYSDLNTQRPYYK
notes: whole, on cells; Negative control transfectant

Experiment [1] concerns the target T1, mouse B7-2 on WEHI 231 cells (mouse, UniProt P42082 24-309).
T1 construct: whole, on cells; also called CD86
T1 sequence (looked up): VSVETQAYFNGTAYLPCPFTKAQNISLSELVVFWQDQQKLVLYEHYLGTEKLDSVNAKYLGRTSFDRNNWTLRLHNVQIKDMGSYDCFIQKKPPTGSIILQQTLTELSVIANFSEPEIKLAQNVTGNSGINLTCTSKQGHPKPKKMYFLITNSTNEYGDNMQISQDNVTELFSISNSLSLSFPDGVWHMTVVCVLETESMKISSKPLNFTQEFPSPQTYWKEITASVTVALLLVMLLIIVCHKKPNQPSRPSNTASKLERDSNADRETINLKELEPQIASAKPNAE
Nature of the experiment: flow cytometry on WEHI 231 cells with blocking anti B7-1 and B7-2 antibodies. Background: In flow cytometry, cells or beads pass a laser one at a time.

Experiment [2] concerns the target T2, mouse B7-1 on cells (WEHI 231, undifferentiated ES cells) (mouse, UniProt Q00609 38-306).
T2 construct: whole, on cells; also called CD80
T2 sequence (looked up): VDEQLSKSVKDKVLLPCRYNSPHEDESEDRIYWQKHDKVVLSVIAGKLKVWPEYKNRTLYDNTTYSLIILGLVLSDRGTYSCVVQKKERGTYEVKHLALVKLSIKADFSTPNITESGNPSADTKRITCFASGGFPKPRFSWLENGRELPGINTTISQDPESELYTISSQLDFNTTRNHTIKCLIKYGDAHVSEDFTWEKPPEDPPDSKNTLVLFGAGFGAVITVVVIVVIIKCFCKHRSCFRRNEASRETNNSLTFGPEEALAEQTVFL
The experiment is described as above.

For experiment [3], the target named is B3. The experiment in a line: flow cytometry on transfected COS cells.
For experiment [4], the target named is T3, murine GL50-1 (mGL50-1) expressed on transfected COS cells (mouse, UniProt Q9JHJ8 47-322).
T3 construct: 322 amino acid protein
T3 sequence: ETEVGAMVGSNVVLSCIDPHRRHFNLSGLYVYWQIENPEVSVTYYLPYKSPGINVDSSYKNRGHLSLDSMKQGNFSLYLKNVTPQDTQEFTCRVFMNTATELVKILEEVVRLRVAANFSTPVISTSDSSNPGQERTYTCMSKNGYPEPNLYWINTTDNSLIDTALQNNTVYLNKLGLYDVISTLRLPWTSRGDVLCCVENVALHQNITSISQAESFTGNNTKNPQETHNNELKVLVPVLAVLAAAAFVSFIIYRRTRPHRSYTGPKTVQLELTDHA
The experiment in a line: flow cytometry on transfected COS cells.

Experiment [5] concerns the target T4, murine GL50-2 (mGL50-2) expressed on transfected COS cells (mouse, UniProt Q9JHJ8 44-320).
T4 construct: Alternatively spliced form of 347 residues; also called mGL50-B
T4 sequence: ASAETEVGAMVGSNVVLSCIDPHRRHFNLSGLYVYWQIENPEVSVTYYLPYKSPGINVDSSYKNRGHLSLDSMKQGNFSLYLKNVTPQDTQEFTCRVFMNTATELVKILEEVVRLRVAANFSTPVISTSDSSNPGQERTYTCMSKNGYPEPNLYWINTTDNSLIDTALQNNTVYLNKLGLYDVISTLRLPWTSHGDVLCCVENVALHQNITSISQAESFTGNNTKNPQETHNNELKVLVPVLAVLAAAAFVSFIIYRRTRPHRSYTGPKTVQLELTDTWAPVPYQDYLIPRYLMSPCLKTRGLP
The experiment in a line: flow cytometry on transfected COS cells.

The target of a further experiment is T5, CD28-Ig (mouse, UniProt P31041 20-150).
T5 construct: not shown: Ig part not described
T5 sequence (looked up): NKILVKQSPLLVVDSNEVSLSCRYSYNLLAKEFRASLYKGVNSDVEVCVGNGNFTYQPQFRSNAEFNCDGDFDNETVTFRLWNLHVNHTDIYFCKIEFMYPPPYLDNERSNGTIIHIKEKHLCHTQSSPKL
The experiment in a line: flow cytometry on transfected COS cells.

As for B1, the figures for the binding result in experiment [1], in experiment [2] and in experiment [3] were “no binding”, “no binding” and “no binding (tested: 5 µg/ml of fusion protein)”, respectively.

Regarding B2, the binding result in experiment [4] and in experiment [5] was “binds” each time.

Consider B3, for which, in the experiment with CD28-Ig, the binding result was “no binding (tested: 5 µg/ml of fusion protein)”.
